From US20180215801A1

Target: Activin B (UniProt P09529)
Assay: SPR (Biacore 2000), Fc fusion captured on anti-human Fc chip, ligand injected, 1:1 Langmuir fit

Activin B, sequence (P09529 293-407 limits assumed): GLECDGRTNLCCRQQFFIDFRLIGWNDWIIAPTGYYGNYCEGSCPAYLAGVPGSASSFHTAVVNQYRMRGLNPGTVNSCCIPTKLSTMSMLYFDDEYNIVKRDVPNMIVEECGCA

How did the Kd turn out when “BMPRII-Fc (BMPRII (1-120) fused to hIgG1-Fc) (from UniProt Q13873 27-120) (Fc fusion)” was run?
Its Kd is 0.8 nM.

What about the koff of the same substance?
The koff was 0.00042 s⁻¹.

And the kon?
The kon was 510000 M⁻¹ s⁻¹.
